According to paper PMC10042815:

Molecular target: thrombin (Sigma, Germany)

Row | Substance | antithrombin activity by thrombin titration (bovine fibrinogen, fibrin clot within 1 min as endpoint, 37 °C, 50 mM Tris-HCl pH 7.4) [ATU/mL]
1 | recombinant hirudin from Hirudo nipponia (candidate hirudin gene c16237_g1) (natural protein) | 14000
2 | commercially available hirudin (MedChem Express) (natural protein) | 12000
